Test results reported in patent US20170037088A1 (published 2017).
Blank lines part the entries; values can stand above or below the molecule they belong to.

Columns and labels:
hGHR-Fc (human) = hGHR-Fc (human) (UniProt P10912); experiment: ELISA
[1] = molecular target: AC296 (FIX-XTEN_AE864 that lacks an XTEN release site) (UniProt P00740)
[2] = molecular target: AC299 (FIX-XTEN_AE864 with an XTEN release site specific for FXI) (UniProt P00740)
[3] = molecular target: AC300 (FIX-XTEN_AE864 with an XTEN release site specific for thrombin) (UniProt P00740)
glucagon receptor = glucagon receptor (UniProt P47871 26-477, limits assumed); experiment: cell-based or functional assay

hGHR-Fc (human), sequence (P10912 19-264): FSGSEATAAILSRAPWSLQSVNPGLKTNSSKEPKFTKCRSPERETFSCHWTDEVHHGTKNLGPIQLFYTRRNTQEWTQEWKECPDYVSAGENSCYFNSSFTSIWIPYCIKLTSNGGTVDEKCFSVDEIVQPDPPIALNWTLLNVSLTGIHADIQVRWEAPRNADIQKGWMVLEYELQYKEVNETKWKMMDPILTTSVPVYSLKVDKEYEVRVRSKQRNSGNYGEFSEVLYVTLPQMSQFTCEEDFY

EC50 (hGHR-Fc (human)): 16.2 nM
Molecule: AE912-hGH-AE144

Molecule: immobilized thrombin (Thrombin CleanCleave Kit, RECOM-T, Sigma)
Clotting activity (ng/ng), with thrombin [1]: 0.01 ng/ng
Clotting activity (ng/ng), with thrombin [2]: 0.02 ng/ng
Clotting activity (ng/ng), with thrombin [3]: 0.8 ng/ng

EC50, real-time calcium mobilization (FLIPR) (glucagon receptor): 72 nM
B1: glucagon-Y288 (other)
chain: HSQGTFTSDYSKYLDSRRAQDFVQWLMNTGEGSGEGSEGEGSEGSGEGEGSEGSGEGEGGSEGSEGEGGSEGSEGEGGSEGSEGEGSGEGSEGEGGSEGSEGEGSGEGSEGEGSEGGSEGEGGSEGSEGEGSGEGSEGEGGEGGSEGEGSEGSGEGEGSGEGSEGEGSEGSGEGEGSGEGSEGEGSEGSGEGEGSEGSGEGEGGSEGSEGEGSEGSGEGEGGEGSGEGEGSGEGSEGEGGGEGSEGEGSGEGGEGEGSEGGSEGEGGSEGGEGEGSEGSGEGEGSEGGSEGEGSEGGSEGEGSEGSGEGEGSEGSGE
